Legend:
[1] = biological target: recombinant UBE3A protein (Homo sapiens (Human)) (UniProt Q05086); test: 2-step Simoa; capture GTX; UBE3A 1 ng/ml
[2] = biological target: recombinant UBE3A protein (Homo sapiens (Human)) (UniProt Q05086); test: 2-step Simoa; capture GTX; UBE3A 10 ng/ml
[3] = biological target: recombinant UBE3A protein (Homo sapiens (Human)) (UniProt Q05086); test: 3-step Simoa; capture GTX; UBE3A 0.1 ng/ml
[4] = biological target: recombinant UBE3A protein (Homo sapiens (Human)) (UniProt Q05086); test: 3-step Simoa; capture MS 3E5; UBE3A 0.010 ng/ml
[5] = biological target: recombinant UBE3A protein (Homo sapiens (Human)) (UniProt Q05086); test: 2-step Simoa; capture Novus; UBE3A 1 ng/ml
[6] = biological target: recombinant UBE3A protein (Homo sapiens (Human)) (UniProt Q05086); test: 2-step Simoa; capture GTX; UBE3A 0.01 ng/ml
[7] = biological target: recombinant UBE3A protein (Homo sapiens (Human)) (UniProt Q05086); test: 2-step Simoa; capture MS 3E5; UBE3A 0.1 ng/ml
[8] = biological target: recombinant UBE3A protein (Homo sapiens (Human)) (UniProt Q05086); test: 2-step Simoa; capture Novus; UBE3A 0.01 ng/ml
[9] = biological target: recombinant UBE3A protein (Homo sapiens (Human)) (UniProt Q05086); test: 3-step Simoa; capture Novus; UBE3A 0.01 ng/ml
[10] = biological target: recombinant UBE3A protein (Homo sapiens (Human)) (UniProt Q05086); test: 3-step Simoa; capture GTX; UBE3A 10 ng/ml
[11] = biological target: recombinant UBE3A protein (Homo sapiens (Human)) (UniProt Q05086); test: 3-step Simoa; capture MS 3E5; UBE3A 1 ng/ml
[12] = biological target: recombinant UBE3A protein (Homo sapiens (Human)) (UniProt Q05086); test: 3-step Simoa; capture Novus; UBE3A 0.1 ng/ml
[13] = biological target: recombinant UBE3A protein (Homo sapiens (Human)) (UniProt Q05086); test: 2-step Simoa; capture Novus; UBE3A 10 ng/ml
[14] = biological target: recombinant UBE3A protein (Homo sapiens (Human)) (UniProt Q05086); test: 2-step Simoa; capture Novus; UBE3A 0.1 ng/ml
[15] = biological target: recombinant UBE3A protein (Homo sapiens (Human)) (UniProt Q05086); test: 2-step Simoa; capture GTX; UBE3A 0.1 ng/ml
[16] = biological target: recombinant UBE3A protein (Homo sapiens (Human)) (UniProt Q05086); test: 3-step Simoa; capture Novus; UBE3A 10 ng/ml
[17] = biological target: recombinant UBE3A protein (Homo sapiens (Human)) (UniProt Q05086); test: 3-step Simoa; capture MS 3E5; UBE3A 10 ng/ml
[18] = biological target: recombinant UBE3A protein (Homo sapiens (Human)) (UniProt Q05086); test: 2-step Simoa; capture MS 3E5; UBE3A 1 ng/ml
[19] = biological target: recombinant UBE3A protein (Homo sapiens (Human)) (UniProt Q05086); test: 3-step Simoa; capture Novus; UBE3A 1 ng/ml
[20] = biological target: recombinant UBE3A protein (Homo sapiens (Human)) (UniProt Q05086); test: 2-step Simoa; capture MS 3E5; UBE3A 0.01 ng/ml
[21] = biological target: recombinant UBE3A protein (Homo sapiens (Human)) (UniProt Q05086); test: 3-step Simoa; capture GTX; UBE3A 0.01 ng/ml
[22] = biological target: recombinant UBE3A protein (Homo sapiens (Human)) (UniProt Q05086); test: 3-step Simoa; capture GTX; UBE3A 1 ng/ml
[23] = biological target: recombinant UBE3A protein (Homo sapiens (Human)) (UniProt Q05086); test: 2-step Simoa; capture MS 3E5; UBE3A 10 ng/ml
[24] = biological target: recombinant UBE3A protein (Homo sapiens (Human)) (UniProt Q05086); test: 3-step Simoa; capture MS 3E5; UBE3A 0.1 ng/ml
[25] = biological target: UBE3A standard protein (Abcam, ab125736) (Homo sapiens (Human)) (UniProt Q05086); test: Singulex sandwich; capture GTX10488; interpolated UBE3A 3.39 pg/mL
[26] = biological target: UBE3A standard protein (ab206157, Abcam) (Homo sapiens (Human)) (UniProt Q05086); test: Singulex sandwich; capture GTX101092; UBE3A 10000 pg/ml
[27] = biological target: UBE3A standard protein (ab206157, Abcam) (Homo sapiens (Human)) (UniProt Q05086); test: Singulex sandwich; capture GTX101092; UBE3A 312.5 pg/ml
[28] = biological target: UBE3A standard protein (ab206157, Abcam) (Homo sapiens (Human)) (UniProt Q05086); test: Singulex sandwich; capture GTX101092; UBE3A 2500 pg/ml
[29] = biological target: UBE3A standard protein (ab206157, Abcam) (Homo sapiens (Human)) (UniProt Q05086); test: Singulex sandwich; capture GTX101092; UBE3A 5000 pg/ml
[30] = biological target: UBE3A standard protein (ab206157, Abcam) (Homo sapiens (Human)) (UniProt Q05086); test: Singulex sandwich; capture GTX101092; UBE3A 78.125 pg/ml
[31] = biological target: UBE3A standard protein (Abcam, ab125736) (Homo sapiens (Human)) (UniProt Q05086); test: Singulex sandwich; capture GTX10488; interpolated UBE3A 2039.33 pg/mL
[32] = biological target: UBE3A standard protein (ab206157, Abcam) (Homo sapiens (Human)) (UniProt Q05086); test: Singulex sandwich; capture GTX101092; UBE3A 19.531 pg/ml
[33] = biological target: UBE3A standard protein (Abcam, ab125736) (Homo sapiens (Human)) (UniProt Q05086); test: Singulex sandwich; capture GTX10488; interpolated UBE3A 256.41 pg/mL
[34] = biological target: UBE3A standard protein (Abcam, ab125736) (Homo sapiens (Human)) (UniProt Q05086); test: Singulex sandwich; capture GTX10488; interpolated UBE3A 31.06 pg/mL
[35] = biological target: UBE3A standard protein (Abcam, ab125736) (Homo sapiens (Human)) (UniProt Q05086); test: Singulex sandwich; capture GTX10488; interpolated UBE3A 78.6 pg/mL
[36] = biological target: UBE3A standard protein (ab206157, Abcam) (Homo sapiens (Human)) (UniProt Q05086); test: Singulex sandwich; capture GTX101092; UBE3A 1250 pg/ml
[37] = biological target: UBE3A standard protein (ab206157, Abcam) (Homo sapiens (Human)) (UniProt Q05086); test: Singulex sandwich; capture GTX101092; UBE3A 156.25 pg/ml
[38] = biological target: UBE3A standard protein (ab206157, Abcam) (Homo sapiens (Human)) (UniProt Q05086); test: Singulex sandwich; capture GTX101092; UBE3A 39.063 pg/ml
[39] = biological target: UBE3A standard protein (ab206157, Abcam) (Homo sapiens (Human)) (UniProt Q05086); test: Singulex sandwich; capture GTX101092; UBE3A 9.766 pg/ml
[40] = biological target: UBE3A standard protein (Abcam, ab125736) (Homo sapiens (Human)) (UniProt Q05086); test: Singulex sandwich; capture GTX10488; interpolated UBE3A ND
[41] = biological target: UBE3A standard protein (Abcam, ab125736) (Homo sapiens (Human)) (UniProt Q05086); test: Singulex sandwich; capture GTX10488; interpolated UBE3A 661.46 pg/mL
[42] = biological target: UBE3A standard protein (Abcam, ab125736) (Homo sapiens (Human)) (UniProt Q05086); test: Singulex sandwich; capture GTX10488; interpolated UBE3A 10.59 pg/mL

2F6 (WH0007337M1-100 ug, Millipore-Sigma) (antibody)
AEB1 [1]: 0.0965
AEB2 [1]: 0.095
Ave AEB [1]: 0.0957
Signal to Background [1]: 1.04
AEB1 [2]: 0.109
AEB2 [2]: 0.109
Ave AEB [2]: 0.109
Signal to Background [2]: 1.19
AEB1 [3]: 0.0432
AEB2 [3]: 0.0414
Ave AEB [3]: 0.0423
Signal to Background [3]: 0.96
AEB1 [4]: 0.0052
AEB2 [4]: 0.0068
Ave AEB [4]: 0.006
Signal to Background [4]: 0.792
AEB1 [5]: 0.048
AEB2 [5]: 0.0444
Ave AEB [5]: 0.0462
Signal to Background [5]: 0.93
AEB1 [6]: 0.0965
AEB2 [6]: 0.0944
Ave AEB [6]: 0.0955
Signal to Background [6]: 1.04
AEB1 [7]: 0.0191
AEB2 [7]: 0.018
Ave AEB [7]: 0.0186
Signal to Background [7]: 1.12
AEB1 [8]: 0.0511
AEB2 [8]: 0.0431
Ave AEB [8]: 0.0471
Signal to Background [8]: 0.95
AEB1 [9]: 0.0221
AEB2 [9]: 0.0242
Ave AEB [9]: 0.0232
Signal to Background [9]: 0.97
AEB1 [10]: 0.047
AEB2 [10]: 0.0463
Ave AEB [10]: 0.0466
Signal to Background [10]: 1.05
AEB1 [11]: 0.009
AEB2 [11]: 0.0088
Ave AEB [11]: 0.0089
Signal to Background [11]: 1.17
AEB1 [12]: 0.0269
AEB2 [12]: 0.0251
Ave AEB [12]: 0.026
Signal to Background [12]: 1.09
AEB1 [13]: 0.0475
AEB2 [13]: 0.045
Ave AEB [13]: 0.0462
Signal to Background [13]: 0.92
AEB1 [14]: 0.047
AEB2 [14]: 0.0451
Ave AEB [14]: 0.046
Signal to Background [14]: 0.93
AEB1 [15]: 0.0906
AEB2 [15]: 0.0965
Ave AEB [15]: 0.0936
Signal to Background [15]: 1.02
AEB1 [16]: 0.0249
Ave AEB [16]: 0.0249
Signal to Background [16]: 1.04
AEB1 [17]: 0.0203
AEB2 [17]: 0.0195
Ave AEB [17]: 0.0199
Signal to Background [17]: 2.62
AEB1 [18]: 0.0234
AEB2 [18]: 0.0226
Ave AEB [18]: 0.023
Signal to Background [18]: 1.39
AEB1 [19]: 0.0277
AEB2 [19]: 0.024
Ave AEB [19]: 0.0259
Signal to Background [19]: 1.08
AEB1 [20]: 0.0177
AEB2 [20]: 0.016
Ave AEB [20]: 0.0168
Signal to Background [20]: 1.01
AEB1 [21]: 0.043
AEB2 [21]: 0.0459
Ave AEB [21]: 0.0445
Signal to Background [21]: 1.01
AEB1 [22]: 0.0409
AEB2 [22]: 0.0476
Ave AEB [22]: 0.0443
Signal to Background [22]: 1
AEB1 [23]: 0.0582
AEB2 [23]: 0.0565
Ave AEB [23]: 0.0574
Signal to Background [23]: 3.46
AEB1 [24]: 0.0078
AEB2 [24]: 0.0073
Ave AEB [24]: 0.0075
Signal to Background [24]: 0.99

anti-UBE3A antibody H00007337-M02 (AbNova)
DE Mean [25]: 461 DE
DE S/N [25]: 1.1
EP Mean [25]: 71800 EP
S-N [25]: 13 DE
AvgDE [26]: 12700 DE
AvgDE [27]: 1610 DE
AvgDE [28]: 6430 DE
AvgDE [29]: 10700 DE
AvgDE [30]: 559 DE
DE Mean [31]: 13600 DE
DE S/N [31]: 33.1
EP Mean [31]: 5.69e+06 EP
S-N [31]: 13000 DE
AvgDE [32]: 208 DE
DE Mean [33]: 4910 DE
DE S/N [33]: 11.9
EP Mean [33]: 926000 EP
S-N [33]: 4290 DE
DE Mean [34]: 925 DE
DE S/N [34]: 2.3
EP Mean [34]: 143000 EP
S-N [34]: 470 DE
DE Mean [35]: 1770 DE
DE S/N [35]: 4.3
EP Mean [35]: 291000 EP
S-N [35]: 1170 DE
AvgDE [36]: 4130 DE
AvgDE [37]: 922 DE
AvgDE [38]: 289 DE
AvgDE [39]: 112 DE
DE S/N [40]: 1
DE Mean [41]: 9340 DE
DE S/N [41]: 22.7
EP Mean [41]: 2.27e+06 EP
S-N [41]: 8460 DE
DE Mean [42]: 585 DE
DE S/N [42]: 1.4
EP Mean [42]: 91300 EP
S-N [42]: 136 DE
